B1: lactoferrin (protein, UniProt P24627 20-708, looked up)
Lactotransferrin: APRKNVRWCTISQPEWFKCRRWQWRMKKLGAPSITCVRRAFALECIRAIAEKKADAVTLDGGMVFEAGRDPYKLRPVAAEIYGTKESPQTHYYAVAVVKKGSNFQLDQLQGRKSCHTGLGRSAGWIIPMGILRPYLSWTESLEPLQGAVAKFFSASCVPCIDRQAYPNLCQLCKGEGENQCACSSREPYFGYSGAFKCLQDGAGDVAFVKETTVFENLPEKADRDQYELLCLNNSRAPVDAFKECHLAQVPSHAVVARSVDGKEDLIWKLLSKAQEKFGKNKSRSFQLFGSPPGQRDLLFKDSALGFLRIPSKVDSALYLGSRYLTTLKNLRETAEEVKARYTRVVWCAVGPEEQKKCQQWSQQSGQNVTCATASTTDDCIVLVLKGEADALNLDGGYIYTAGKCGLVPVLAENRKSSKHSSLDCVLRPTEGYLAVAVVKKANEGLTWNSLKDKKSCHTAVDRTAGWNIPMGLIVNQTGSCAFDEFFSQSCAPGADPKSRLCALCAGDDQGLDKCVPNSKEKYYGYTGAFRCLAEDVGDVAFVKNDTVWENTNGESTADWAKNLNREDFRLLCLDGTRKPVTEAQSCHLAVAPNHAVVSRSDRAAHVKQVLLHQQALFGKNGKNCPDKFCLFKSETKNLLFNDNTECLAKLGGRPTYEEYLGTEYVTAIANLKKCSTSPLLEACAFLTR
notes: Native LF sold in the market (by Oleofina, Belgium), not hydrolyzed; control of Tests 1, 3-6, 8
B2: unhydrolyzed Fe-LF: Comparison sample of Test 7; table says unhydrolyzed Fe-LF ?, text says unhydrolyzed LF (protein, UniProt P24627 20-708, looked up)
Lactotransferrin: B1 Lactotransferrin
modifications: iron-saturated

How the values were obtained:
[1] = Preservation of cow's milk, change in appearance (Test 7); details: cow's milk at 25° C.
Protocol: The antibacterial activity of hydrolyzates of iron saturated LF was tested in the same manner as in test 5, except that hydrolyzates of iron saturated LF prepared in the same manner as in Example 5 and cow's milk sold in the market were used.
Each of three kinds of samples, to one of which is added hydrolyzate of Fe-LF, to another one of which is added unhydrolyzed LF and the third of which is added nothing, were respectively distributed into 3 test tubes (in total 9) and preserved at 25° C. for observation of any change in appearance.

viable bacterial count = assay: Viable bacterial count of treated sliced vegetables (Test 4); details: dipped in 1% aqueous solution 30 seconds, preserved at 5° C.
Protocol: A quantity of sliced vegetables sold in the market was divided into three parts. […] Each of the treated samples was drained then preserved at 5° C. for observation. Viable bacterial count of the samples was periodically determined by the conventional method.

Escherichia coli [2] = assay: Antibacterial activity: proliferation inhibition of E. coli in liquid culture medium (Tests 1, 3, 6); assay type: cell-based
Protocol: From the stock culture of Escherichia coli, a loop of bacterial cells was taken out with a platinum loop and smeared onto a standard plate agar medium (by Nissui Seiyaku), followed by incubation at 35° C. for 16 hours under aerobic condition.
Basic culture medium (liquid culture medium) was prepared by dissolving bactocasitone (by Difco) into purified water in 1% concentration, adjusting the pH of the resultant solution to 7.0 with 1M sodium hydroxide, then sterilizing at 115° C. for 15 minutes.
The solutions of LF hydrolyzates previously prepared in item 1-1) were respectively filtered with membrane filters (by Advantech) to remove microorganisms which might be included therein. Different quantities of each of filtered solutions of LF hydrolyzates were respectively added to a portion of the basic culture medium to give 6 lots of test culture media containing LF hydrolyzate in different concentrations for each LF hydrolyzate having different decomposition rates as shown in Table 1. Control culture media containing unhydrolyzed LF in different concentrations were also prepared in the same manner as in the test culture media.
To each of the test and control culture media, the pre-culture was inoculated in 1% concentration, followed by incubation at 35° C. for 16 hours. The proliferation inhibition rate was determined by measuring the optical density of the culture broth in the same manner as previously described and calculating in accordance with the following formula:
proliferation inhibition rate (%)=100-(A/B×100)
(wherein A denotes the difference of optical densities of the test culture media before and after 16 hours incubation, B denotes the difference of optical densities of the control culture media before and after 16 hours incubation respectively) and
Antibacterial activity against E. coli of LF hydrolyzate having a 12% decomposition rate prepared in the same manner as in Example 2 (hydrolysis by citric acid) and that of unhydrolyzed LF were determined in the same manner as in Test 1.
Aqueous solutions of 10 kinds of LF hydrolyzate (prepared using different enzymes) and an aqueous solution of unhydrolyzed LF prepared in the same manner as in test 2 were filtered with membrane filters (by Advantec) to remove bacterial cells which might be contaminated therein. Each of the solutions was added to basic culture media (the same with that in Test 1) in different concentrations (50, 100, 250, 500, and 1000 ppm) to prepare test cultures and control cultures.
Antibacterial activity was tested for these cultures in the same manner as in test 1.

Escherichia coli [3] = assay: Antibacterial activity against E. coli in the presence of iron (Test 8); assay type: cell-based; details: 0.01 mM of ferrous sulfate
[4] = preservation day 10, 3 test tubes
[5] = preservation day 14, 3 test tubes

Molecule	change in appearance of milk [1, 4]	change in appearance of milk [1, 5]	viable bacterial counts (viable bacterial count; 0 hours)	viable bacterial counts (viable bacterial count; 12 hours)	viable bacterial counts (viable bacterial count; 24 hours)	viable bacterial counts (viable bacterial count; 36 hours)	quantity added at which antibacterial activity was shown (Escherichia coli [2]; Table 1)	proliferation inhibition rate (Escherichia coli [2]; Table 1, concentration 1000 ppm)	proliferation inhibition rate (Escherichia coli [2]; Table 3, quantity added 25 ppm) [%]	proliferation inhibition rate (Escherichia coli [2]; Table 3, quantity added 50 ppm) [%]	proliferation inhibition rate (Escherichia coli [2]; Table 3, quantity added 100 ppm) [%]	proliferation inhibition rate (Escherichia coli [2]; Table 3, quantity added 250 ppm) [%]	proliferation inhibition rate (Escherichia coli [2]; Table 3, quantity added 500 ppm) [%]	proliferation inhibition rate (Escherichia coli [2]; Table 3, quantity added 1000 ppm) [%]	proliferation inhibition rate (Escherichia coli [2]; Table 5, quantity 250 ppm)	proliferation inhibition rate (Escherichia coli [2]; Table 5, quantity 1000 ppm)	antibacterial activity in the presence of ferrous sulfate, in words (Escherichia coli [3])	change in appearance of milk ([1]; preservation day 0, 3 test tubes)	change in appearance of milk ([1]; preservation day 3, 3 test tubes)	change in appearance of milk ([1]; preservation day 7, 3 test tubes)
B1	did not show any change in appearance	all of the samples showed coagulation	5.1 × 10^3 per 1 g of sliced vegetables	2.0 × 10^4 per 1 g of sliced vegetables	1.8 × 10^5 per 1 g of sliced vegetables	2.2 × 10^5 per 1 g of sliced vegetables	more than 250 ppm	complete inhibition could not be achieved	0	0	5	16	74	85	weak antibacterial activity	complete inhibition against proliferation of E. coli could not be achieved	deactivated			
B2	no change	coagulated																no change	no change	no change

From patent publication US5389611A, “Lactoferrin hydrolyzate for use as an antibacterial agent and as a tyrosinase inhibition agent” (priority 1990, dated 1995)
